In US20240400677A1 (ELECTRA THERAPEUTICS, published 2024):

T1: Cynomolgus Monkey SIRPγ (plate-coated extracellular domain)
T1 construct: also called Cyno SIRPγ
T1 extracellular domain: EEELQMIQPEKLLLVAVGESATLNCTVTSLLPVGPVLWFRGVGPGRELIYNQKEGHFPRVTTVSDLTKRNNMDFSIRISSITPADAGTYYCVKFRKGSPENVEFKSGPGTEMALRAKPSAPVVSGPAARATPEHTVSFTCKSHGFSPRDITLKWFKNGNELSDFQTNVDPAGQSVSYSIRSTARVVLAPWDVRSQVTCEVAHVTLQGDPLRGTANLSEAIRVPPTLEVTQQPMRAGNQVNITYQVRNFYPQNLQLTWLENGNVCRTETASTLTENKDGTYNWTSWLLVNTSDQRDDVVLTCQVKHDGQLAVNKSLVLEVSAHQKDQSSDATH

T2: cynomolgus monkey SIRPα on CHO cells (cynomolgus monkey, UniProt A0A2K5VYQ9 31-507)
T2 construct: whole, on cells; also called Cyno SIRPα CHO
T2 sequence: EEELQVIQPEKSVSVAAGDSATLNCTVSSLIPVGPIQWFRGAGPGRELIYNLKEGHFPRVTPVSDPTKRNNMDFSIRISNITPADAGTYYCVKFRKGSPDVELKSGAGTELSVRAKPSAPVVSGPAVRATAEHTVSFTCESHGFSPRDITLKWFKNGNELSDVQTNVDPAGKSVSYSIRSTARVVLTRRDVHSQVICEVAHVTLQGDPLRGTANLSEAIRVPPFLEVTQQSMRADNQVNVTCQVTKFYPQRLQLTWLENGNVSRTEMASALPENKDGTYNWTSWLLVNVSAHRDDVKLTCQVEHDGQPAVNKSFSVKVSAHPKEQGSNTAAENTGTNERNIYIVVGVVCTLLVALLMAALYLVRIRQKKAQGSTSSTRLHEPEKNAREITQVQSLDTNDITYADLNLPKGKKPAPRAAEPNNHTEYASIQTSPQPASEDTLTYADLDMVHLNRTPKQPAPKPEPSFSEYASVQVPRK


Columns and labels:
[1] = target: T1, Cynomolgus Monkey SIRPγ (plate-coated …); test: ELISA, coated SIRP ECD (2 µg/mL), anti-human IgG, luminescence
Protocol: (§1) Selected hybridoma supernatants of Example 1 were tested for binding to human SIRPγ, cynomolgus monkey SIRPγ, human SIRPα V1, cynomolgus monkey SIRPα, human SIRPβ1, and cynomolgus monkey SIRPβ1 by enzyme-linked immunosorbent assay (ELISA). Briefly, 2 μg/mL of the extracellular domain of SIRP protein was coated onto high protein-binding plates and blocked. Undiluted supernatants were added to coated plates. The antibodies were detected by an anti-rat antibody and a chemiluminescent substrate. […] The data depict the relative luminescence units read by a plate-reader capable of detecting chemiluminescence.
(§2) FIGS. 2A-2G show binding curves of SIRPγ antibodies and human Fc isotype controls to human SIRPγ, cynomolgus monkey SIRPγ, human SIRPα V1, human SIRPα V2, and human SIRPβ1 by ELISA. […] Isotype control 2 was an unrelated human IgG1 antibody with irrelevant CDRs with no modifications in the Fc region. DNA was transiently transfected into Expi293F cells for 5 days. Antibodies were purified by Protein A from cell supernatants and analyzed in a titration via ELISA as previously described in FIG. 1 using an anti-human IgG antibody as the detection antibody.

[2] = target: T3, human SIRPβ1 on CHO cells (co-transfected with DAP12) (human, UniProt O00241 30-398); test: flow cytometry, CHO transfectants, anti-human IgG
T3 construct: whole, on cells; co-transfected with DAP12; also called Human SIRPβ1 CHO
T3 sequence (O00241 30-398): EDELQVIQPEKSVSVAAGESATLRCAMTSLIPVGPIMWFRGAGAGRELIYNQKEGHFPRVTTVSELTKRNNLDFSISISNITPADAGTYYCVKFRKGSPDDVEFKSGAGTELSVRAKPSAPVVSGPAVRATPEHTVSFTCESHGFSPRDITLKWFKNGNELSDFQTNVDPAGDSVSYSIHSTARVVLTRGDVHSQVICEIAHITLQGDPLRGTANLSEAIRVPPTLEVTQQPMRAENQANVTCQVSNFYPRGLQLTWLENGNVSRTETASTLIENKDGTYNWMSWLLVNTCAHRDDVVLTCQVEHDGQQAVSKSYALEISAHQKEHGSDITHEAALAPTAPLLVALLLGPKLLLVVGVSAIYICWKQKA
Protocol: (§3) Selected antibodies were tested for binding to stably transfected human SIRPγ, SIRPαV1, or SIRPβ1 (co-transfected with DAP12) Chinese hamster ovary (CHO) cells via flow cytometry. A titration of select antibodies was added to the cells and detected using a fluorescently labelled secondary anti-rat IgG antibody or anti-human IgG antibody. Graphs depict the median fluorescence intensity (MFI) at each concentration. FIGS. 5A and 5G show the binding curves of select antibodies to human SIRPγ, cynomolgus monkey SIRPγ, human SIRPα, cynomolgus monkey SIRPα, human SIRPβ1, or cynomolgus monkey SIRPβl-expressing CHO cells detected using an anti-rat IgG antibody. FIGS. 5B-5F and 5H-5L show the binding curves of select antibodies to human SIRPγ, cynomolgus monkey SIRPγ, human SIRPα, cynomolgus monkey SIRPα, human SIRPβ1, or cynomolgus monkey SIRPβ1-expressing CHO cells detected using an anti-human IgG antibody. […] For select antibodies, each myc-tagged SIRPγ scFv antibody as crude PPE was incubated with each of the SIRP-expressing cell lines stated above along with the parental CHO-K1 cell line. […] Fold change value <2.0 is considered a non-binder.

[3] = target: T2, cynomolgus monkey SIRPα on CHO cells; test: flow cytometry, CHO transfectants, anti-human IgG
Protocol: as §3

[4] = target: T4, extracellular binding domain of human SIRPγ (plate-coated) (human, UniProt Q9P1W8 29-360); test: ELISA, coated SIRP ECD (2 µg/mL), anti-human IgG, luminescence
T4 construct: also called hSIRPγ
T4 sequence (Q9P1W8 29-360 limits assumed): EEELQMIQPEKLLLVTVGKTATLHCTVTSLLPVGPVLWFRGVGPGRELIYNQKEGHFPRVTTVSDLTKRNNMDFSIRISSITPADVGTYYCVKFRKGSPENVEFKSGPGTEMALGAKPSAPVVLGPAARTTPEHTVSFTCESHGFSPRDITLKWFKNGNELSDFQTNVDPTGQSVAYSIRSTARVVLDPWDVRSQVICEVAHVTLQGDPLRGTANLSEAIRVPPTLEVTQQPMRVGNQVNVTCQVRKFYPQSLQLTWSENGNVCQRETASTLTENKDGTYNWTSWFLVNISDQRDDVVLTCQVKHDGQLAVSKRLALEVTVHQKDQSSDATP
Protocol: as §1, §2

EC50 (read off the curve) [1] [µg/mL] | binding result [2] | binding result [3] | EC50 (read off the curve) [4] [µg/mL] | binding result [1] | Binder
~0.1 | no binding (tested: about 20 µg/mL) | no binding (tested: about 20 µg/mL) |  |  | Antibody 66 (antibody, V domains shown) VH: QVQLVQSGAEVKKPGASVKVSCKASGGTFSSYAISWVRQAPGQGLEWMGIINPSSSSTGYAQKFQGRVTMTRDTSTSTVYMELSSLRSEDTAVYYCARAGYYDSSGYYYSPYYGMDVWGQGTTVTVSS VL: EIVMTQSPATLSVSPGERATLSCRASQSISGSYLAWYQQKPGQAPRLLIYGASTRATGIPARFSGSGSGTEFTLTISSLQSEDFAVYYCQQYGSFPFTFGPGTKVDIK
 | no binding (tested: about 20 µg/mL) | no binding (tested: about 20 µg/mL) | ~0.7 |  | Antibody 55 (antibody, V domains shown) VH: EVQLLESGGGLVQPGGSLRLSCAASGFTFSNSDMNWVRQAPGKGLEWVSYISSSGNTIYYADSVKGRFTISRDNSKNTLYLQMNSLRAEDTAVYYCARSNWNYPLDYYYMDVWGKGTTVTVSS VL: DIVMTQSPLSLPVTPGEPASISCRSSQSLLHSNGYNYLDWYLQKPGQSPQLLIYAASSLQSGVPDRFSGSGSGTDFTLKISRVEAEDVGVYYCMQGTHWPPTFGQGTKVEIK
~0.4 | no binding (tested: about 20 µg/mL) |  | ~0.7 |  | Antibody 56 (antibody, V domains shown) VH: QVQLVQSGAEVKKPGASVKVSCKASGYTFTSYYMHWVRQAPGQGLEWMGWVDPNNGDTGYAQKFQGRVTMTRDTSTSTVYMELSSLRSEDTAVYYCARDNWGSLDVWGKGTTVTVSS VL: DIVMTQSPLSLPVTPGEPASISCRSSQSLLHSNGYNYLDWYLQKPGQSPQLLIYAASTLQSGVPDRFSGSGSGTDFTLKISRVEAEDVGVYYCMQGLQTLYSFGQGTKLEIK
~0.04 | no binding (tested: about 20 µg/mL) | no binding (tested: about 20 µg/mL) | ~0.02 |  | Antibody 81 (antibody, V domains shown) VH: QVQLVQSGAEVKKPGASVKVSCKASGYTFTSYDINWVRQAPGQGLEWMGWISGYNGNTNYAQKFQGRVTMTRDTSTSTVYMELSSLRSEDTAVYYCARSFDWLLLLDYWGQGTLVTVSS VL: DIQMTQSPSSLSASVGDRVTITCRASQSISSWLAWYQQKPGKAPKLLIYDATTLESGVPSRFSGSGSGTDFTLTISSLQPEDFATYYCQQYDSYPWTFGQGTKLEIK
 | no binding (tested: about 20 µg/mL) | no binding (tested: about 20 µg/mL) |  | binds | Antibody 78 (antibody, V domains shown) VH: QVQLVQSGAEVKKPGASVKVSCKASGYTFTTYGISWVRQAPGQGLEWMGWMDPNSGSTGYAQKFQGRVTMTRDTSTSTVYMELSSLRSEDTAVYYCARGRGNSYYYYYMDVWGKGTTVTVSS VL: DIQMTQSPSSLSASVGDRVTITCRASQRIGSYLNWYQQKPGKAPKLLIYGASNLQSGVPSRFSGSGSGTDFTLTISSLQPEDFATYYCQQANSFPFTFGPGTKVDIK

Second part, the binder before the results:

Binder | EC50 (read off the curve) [1] [µg/mL] | binding result [2] | binding result [3] | EC50 (read off the curve) [4] [µg/mL] | binding result [1]
Antibody 77 (antibody, V domains shown) VH: QVQLVQSGAEVKKPGASVKVSCKASGYTFTSYGISWVRQAPGQGLEWMGWISAYNGNTNYAQKFQGRVTMTRDTSTSTVYMELSSLRSEDTAVYYCARGTYYDYIWGSYRYSWFDYWGQGTLVTVSS VL: not shown | ~0.04 | no binding (tested: about 20 µg/mL) | no binding (tested: about 20 µg/mL) | ~0.02 | 
Antibody 74 (antibody, V domains shown) VH: QVQLVQSGAEVKKPGASVKVSCKASGGTFSNYGFSWVRQAPGQGLEWMGWMSPSSGNTGYAQKFQGRVTMTRDTSTSTVYMELSSLRSEDTAVYYCARERSGSYFDYWGQGTLVTVSS VL: EIVMTQSPATLSVSPGERATLSCRASQSVSSYLAWYQQKPGQAPRLLIYGTSTRATGIPARFSGSGSGTEFTLTISSLQSEDFAVYYCQQYGSLPFTFGQGTRLEIK | ~0.7 | no binding (tested: about 20 µg/mL) | no binding (tested: about 20 µg/mL) | ~0.4 | 
Antibody 76 (antibody, V domains shown) VH: QVQLVQSGAEVKKPGSSVKVSCKASGGTFSKIAVSWVRQAPGQGLEWMGLINPNSGGTDYAQKFQGRVTITADESTSTAYMELSSLRSEDTAVYYCAKDFRGGDYYYYGMDVWGQGTTVTVSS VL: EIVMTQSPATLSVSPGERATLSCRASQSVSSNLAWYQQKPGQAPRLLIYGASTRATGIPARFSGSGSGTEFTLTISSLQSEDFAVYYCQQYNTYPITFGQGTKVEIK | ~0.1 | no binding (tested: about 20 µg/mL) | no binding (tested: about 20 µg/mL) | ~0.09 | 
Antibody 67 (antibody, V domains shown) VH: QVQLVQSGAEVKKPGASVKVSCKASGYTFTNFDINWVRQAPGQGLEWMGWISAYNGHTNYAQNLQGRVTMTRDTSTSTVYMELSSLRSEDTAVYYCAQEAAAGYFDYWGQGTLVTVSS VL: DIQMTQSPSSLSASVGDRVTITCRASQDIRNDLAWYQQKPGKAPKLLIYDASNLETGVPSRFSGSGSGTDFTLTISSLQPEDFATYYCQQSYGTPYTFGQGTKLEIK |  | no binding (tested: about 20 µg/mL) | no binding (tested: about 20 µg/mL) |  | binds
Antibody 58 (antibody, V domains shown) VH: QVQLVQSGAEVKKPGASVKVSCKASGYTFTAYYMHWVRQAPGQGLEWMGIINPSGGSTSYAQKFQGRVTMTRDTSTSTVYMELSSLRSEDTAVYYCARDSGWYAPGYYYGMDVWGQGTTVTVSS VL: DIQMTQSPSSLSASVGDRVTITCRASESISHWLAWYQQKPGKAPKLLIYGASTLQSGVPSRFSGSGSGTDFTLTISSLQPEDFATYYCQQSYTPPLTFGGGTKVEIK | ~0.1 | no binding (tested: about 20 µg/mL) | no binding (tested: about 20 µg/mL) | ~0.09 | 
Antibody 62 (antibody, V domains shown) VH: QVQLVQSGAEVKKPGASVKVSCKASGGTFSNYDINWVRQAPGQGLEWMGWISAYNGNTNYAQKLQGRVTMTRDTSTSTVYMELSSLRSEDTAVYYCAAEAYGDYSLDPWGQGTLVTVSS VL: DIQMTQSPSSLSASVGDRVTITCQASQGISSYLNWYQQKPGKAPKLLIYAASSLQNGVPSRFSGSGSGTDFTLTISSLQPEDFATYYCQQSYSTPITFGQGTRLEIK |  | no binding (tested: about 20 µg/mL) | no binding (tested: about 20 µg/mL) |  | binds
Antibody 61 (antibody, V domains shown) VH: QVQLVQSGAEVKKPGASVKVSCKASGYTFTSHDINWVRQAPGQGLEWMGISNPSGGSTYYAQKFQGRVTMTRDTSTSTVYMELSSLRSEDTAVYYCASSRRYWNGAFDYWGQGTLVTVSS VL: not shown |  |  |  |  | binds
